{"source": "the nanobody polyreactivity screen of Harvey et al. (2022)"}
{"assay": "yeast display, Sf9 membrane polyspecificity reagent, FACS + sequencing; frameworks hold sequencing errors", "method_in_brief": "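Polyreactivity labels are assigned by the sorting gate from which each nanobody was recovered. The gates were low and high (top ~1%), set on anti-HA fluorescence for expression and streptavidin fluorescence for reagent binding. Before sorting, galactose-induced (36–48 hours) yeast display cells were stained for 1 hour at 4 °C with 10% biotinylated, detergent-solubilized Sf9 membrane reagent.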"}
{"sequence": "QVQLVESGGGLLQAGGSLRLSCAASGFTFTTYAMGWYRQAPGKERELVAAITRRGGSTYYADSVKGRFTISRDNAKNTVYFQMNSLKPEDTAVYYCAAGGGWGLDYWGQGTQVTVSW", "polyreactivity (PSR sort gate)": "high polyreactivity"}
{"sequence": "QVQLVESGGGLLQAGGSLRLSCAASGLTFVDYAMGWYRQAPGKERELVAAITTSGGSITYYSDSVKGRFTISRDNAKNTVYLQMNSLKPEDTAVYSCNADYGIYTDSFRGPDYESWGQGTQVTVSS", "polyreactivity (PSR sort gate)": "low polyreactivity"}
{"sequence": "QVQLVESGGGLLQAGGSLRLSCAASGMGWYRQAPGKERELVAAISWNGGSTYYADSVKGRFTISRDNAKNTVYLQMNSLKPEDTAVYYCAADYSTVASSLYLDSWGQGTQVTVSS", "polyreactivity (PSR sort gate)": "low polyreactivity"}
{"sequence": "QVQLVESGGGLLQAGGSLRLSCAASGRIFRGYAMGWYRQAPGKESELVAGITSGGSTKYADSVKGRFTISRDNAKNTVYLQMNSLKPEDTAVYYCAKGYLPYSYYARPYIRYYWGQGTQVTVSS", "polyreactivity (PSR sort gate)": "high polyreactivity"}
{"sequence": "QVQLVESGGGLLQAGGSLRLSCAASGRIGRYAMGCYRQAPGKERQLVAVITSGDSTYYADSVKGRFTISRDNAKNTVYLQMNSLKPEESPVESCAADSYRRWGNLFTGNEYDSWGQGTQVTVSS", "polyreactivity (PSR sort gate)": "low polyreactivity"}
{"sequence": "QVQLVESGGGLLQAGGSLRLSCAASGRILGPNAMGWYRQAPGTERELVAAINSGGSTNYADSVKGRFTISRDNAKNTVYLQMNSLKPEDTAVYYCATDKARVAGYGVEYDYWGQGTQVTVSS", "polyreactivity (PSR sort gate)": "low polyreactivity"}
{"sequence": "QVQLVESGGGLLQAGGSLRLSCAASGRNFKYYAMGWYRQAPGKEREFVAAISRSGGRTYYADSVKGRFTISRDNAKNTVYLQMNSLKPEDTAVYYCAAQPSSYVYYRQPFHYWGQGTQVTVSS", "polyreactivity (PSR sort gate)": "high polyreactivity"}
{"sequence": "QVQLVESGGGLLQAGGSLRLSCAASGRTFNYYAMGWYRQAPGKERELVAAISRSGGSTYYADSVKGRFTISRDNAKNTVFLQMNSLKPEDTAVYYCKSDRGSIYGWGQGTQVTVSS", "polyreactivity (PSR sort gate)": "high polyreactivity"}
{"sequence": "QVQLVESGGGLLQAGGSLRLSCAASGRTFPYYAMGWYRQAPGKERELVAAISSSGGSTYYADSVKGRFTISRDNAKNTVYLEMNSLKPEDTEVYYCAAVYQFIKWGDSYEYWGQGTQVTVSS", "polyreactivity (PSR sort gate)": "high polyreactivity"}
{"sequence": "QVQLVESGGGLLQAGGSLRLSCAASGRTFVWNAKGWYRQAPGKERELVAPITNDGSTNYADSVKGRFTISRDNAKNTVYLQMNSLKPEDTAVYYCAKRPRGSRIVPGGYDSWGQGTQVTVSS", "polyreactivity (PSR sort gate)": "low polyreactivity"}
{"sequence": "QVQLVESGGGLLQAGGSLRLSCAASGRTFVYYAMGWYRPAPGKERELVAAITSSGSRTYYADSVKGRFTISRDNAKNTVYLQMNSLKPEDTAVYYCAADYVAHGDYRVLYDYWGQGTQVTVSS", "polyreactivity (PSR sort gate)": "low polyreactivity"}
{"sequence": "QVQLVESGGGLLQAGGSLRLSCAASGSIFGVNAMGWYIQAPGKERELVASITGGDSTNYADSVKGRFTISRDNAKNTVYLQINSLKTEDTAVYYCNARVADAWASGYDYWGQGTQVTVSS", "polyreactivity (PSR sort gate)": "low polyreactivity"}
{"sequence": "QVQLVESGGGLLQAGGSLRLSCAASGSIFRRNAMGWYRQAPGKERELVAAITTRGSRTTYADSVKGRFTISRDNAKNTVYLQMNSLKPEDTAVYYCAARQHFSYSFHVAYDYWGQGTQVTVSS", "polyreactivity (PSR sort gate)": "high polyreactivity"}
{"sequence": "QVQLVESGGGLLQAGGSLRLSCAASGSIFRYYAKGWYRQAPGKERELVAAISYSGGRTYYADSVKGRFTISRDNAKNTVYLQMNSLKPEDTAVYYCNAGAGKRGYDYWGQGTQVTVSS", "polyreactivity (PSR sort gate)": "low polyreactivity"}
{"sequence": "QVQLVESGGGLLQAGGSLRLSCAASGSIFSRYVMGWYRQAPGKERELVAGISGSGGSTYYADSVKGRFTISRDNAKNTVYLQMNSLKPEDTAVYYCNAATSRLYYNHYTRYNYWGQGTQVTVSS", "polyreactivity (PSR sort gate)": "high polyreactivity"}
{"sequence": "QVQLVESGGGLLQAGGSLRLSCAASGSIFTAYAMGWYRQAPGKESELVAAIDDSGDSTYYADSVKGRFTISRDNAKHTVYLQMNSLKTEDTAVYYCKAEYRVNKEYDDWGQGTQVTVSS", "polyreactivity (PSR sort gate)": "low polyreactivity"}
{"sequence": "QVQLVESGGGLLQAGGSLRLSCAASGSNFDRYGRGWYRQAPGTERELVADITSDGSTNYADSVKGRFTISRDNAKNTVYLQMNSLKPEDTAVYYCAVSYTAYSVGYDYWGQGTQVTVSS", "polyreactivity (PSR sort gate)": "low polyreactivity"}
{"sequence": "QVQLVESGGGLLQAGGSLRLSCAASGSTFHRNAMGWYRQAPGKERELVAAISWRAGSTYYADSVKGRFTISRDNAKNTVYLQMNSLKPEDTAVYYCNAVERYWDYGYWGQGTQVTVSS", "polyreactivity (PSR sort gate)": "low polyreactivity"}
{"sequence": "QVQLVESGGGLLQAGGSLRLSCAASGSTFKFNAMGWYRQAPRKERELVAAISNRGGTTYYADSVKGRFTISRDNAKNTVYFHMNSLKPEDTAVYYCAAGRVQSYYYWGQGTQVTVSS", "polyreactivity (PSR sort gate)": "high polyreactivity"}
{"sequence": "QVQLVESGGGLLQAGGSLRLSCAASGSTFRGNALGWYRQAPGKVRELVAAINSSGGRTYYADSVKGRFTISRDNAKNTVYLQMNSLKPEDTAVNYCAARGRRTGDYDYWGQGTQVTVSS", "polyreactivity (PSR sort gate)": "high polyreactivity"}
{"sequence": "QVQLVESGGGLLQAGGSLRLSCAASGSTFTAYAMGWYRQAPGKERELVADISDSGGSTYYADSEKGRFTISRDNAKNTVYLQINSLKPEDTAVYYCAVHVRAFVVSKFDSRGQGTQVTVSS", "polyreactivity (PSR sort gate)": "low polyreactivity"}
{"sequence": "QVQLVESGGGLLQAGGSLRLSCAASGSTFWFYAMGWYRQAPGKERELVDVISNSGSTYYADSEKGRFTISRDNAKNTVYLQMNSLKPEDTAVYNCAADGFYYPNWGRFSYYYWGQGTLVTVSS", "polyreactivity (PSR sort gate)": "low polyreactivity"}
{"sequence": "QVQLVESGGGLLQAGGSLRLSCAASGYTFWLYAMGWYRQAPGKDRELVATISRRAGTTYYADSVKGRFTISRDNAKNTVYLQMNSLKPEDTAVYYCAKKSHSLLGQYGEDYDYWGQGTQVTVSS", "polyreactivity (PSR sort gate)": "low polyreactivity"}
{"sequence": "QVQLVESGGGLLQAGGSLRLSCAASVRFLCYGWYRQAPGKERELVAAITWSGGSTYYADSVKGRFTISRDNAKNTVYLLMNSLKPEDTAVYYCARYPDSYWYGRKNYYWGQGTQVTVSS", "polyreactivity (PSR sort gate)": "high polyreactivity"}
{"sequence": "QVQLVESGGGLLQAGGSLRLSCADSGRTFCPNVMGCYRQAPGKERELVAAITWGDASTYYADSVKGRFTISRDNAKNTVYLQMNCLKPEDTAVYYCGAKSSTRGDYWGQGTQVTVSS", "polyreactivity (PSR sort gate)": "low polyreactivity"}
{"sequence": "QVQLVESGGGLLQAGGSLRLSCSASGRIFPSYAMGWYRQAPGKERELVAAISSSGGRTYYADSVKGRFTISRDNAKNTVYLQLNSLKPEDTAVYYCAARWVQYGVRYDFWGQGTQVTVSS", "polyreactivity (PSR sort gate)": "high polyreactivity"}
{"sequence": "QVQLVESGGGLLQAGGSLRVSCAASGFIFVLYAMGWYRQAPGKERELVAAITWSTGCTYYADSVKGRFTISRDNAKNTVYLHMNSLKPEDTAVYYCSADQYIFGIWFDYWGQGTQVTVSS", "polyreactivity (PSR sort gate)": "high polyreactivity"}
{"sequence": "QVQLVESGGGLLQAGGSLSLSCAASGRTFVPYTMGWYRPAPGKERELVAAISWSDGTTYYADSVKGRFTISRDNAKNTVYLQMNSLKPEDTAVYYCNDDVYLFNYFGGWYYAGYDYWGQGTQVTVSS", "polyreactivity (PSR sort gate)": "high polyreactivity"}
{"sequence": "QVQLVESGGGLLQEGGSLRLSCAASGRTFYYYTMGWYRQAPGIERELVAAITHGGSTYYADSVKGRFTISRDNAKNTVYLQMNSLTPEDTAVYYCNAVYHYPYEYWGHGTQVTVSS", "polyreactivity (PSR sort gate)": "high polyreactivity"}
{"sequence": "QVQLVESGGGLVEAGGSLRLSCAASGFIFGGYDMGWYRPAPGKQRELVAAITRSGGSTYYADSVKGRFTISRDNAKNTVYLEMNSLKPEDTAVYYCAAERQPYRTSSYNYWGQGTQVTVSS", "polyreactivity (PSR sort gate)": "high polyreactivity"}
{"sequence": "QVQLVESGGGLVEAGGSLRLSCAASGFNIPIYAMGWYRPAPGKERELVASITRSGGSTYYADSVKGRFTISRDNAMNTVYLQMNSLKPEDTAVYFCAASVKIISYLVHSELLGGELDYWGQGTQVTVSS", "polyreactivity (PSR sort gate)": "low polyreactivity"}
